Values joined by “and” are separate entries in the source; they are usually repeats but may differ in a detail not shown here. Equal entries are not always repeated.
Target: T1, CD36 (His-tagged recombinant human protein, Sino Biological, Life technologies, 70-80 kDa) (human, UniProt P16671 30-439)
T1 construct: CD36, class B scavenger receptor, human, recombinant; also called Human recombinant CD36
Assay: SPR; Biacore T100; CD36 immobilized by amine coupling on a C1 chip (1000 RU); S100A12 species as analyte 0.62-50.0 nM, single cycle kinetics, 30 µL/min, 25 °C; HBS-P+ with 350 µM CaCl2; two-state reaction model
Conditions: both partners purified

T1 sequence (P16671 30-439): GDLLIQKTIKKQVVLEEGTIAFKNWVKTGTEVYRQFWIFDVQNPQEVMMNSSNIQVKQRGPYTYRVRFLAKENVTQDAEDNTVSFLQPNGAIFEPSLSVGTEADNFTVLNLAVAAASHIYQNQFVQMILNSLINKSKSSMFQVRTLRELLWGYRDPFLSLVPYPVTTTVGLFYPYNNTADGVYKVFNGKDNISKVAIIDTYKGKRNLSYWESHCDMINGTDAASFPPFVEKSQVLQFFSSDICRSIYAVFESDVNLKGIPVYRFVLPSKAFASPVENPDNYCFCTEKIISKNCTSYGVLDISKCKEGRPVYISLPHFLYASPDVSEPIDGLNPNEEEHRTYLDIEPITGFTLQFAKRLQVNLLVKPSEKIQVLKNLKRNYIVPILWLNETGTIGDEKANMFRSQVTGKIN

B1: commercially available native human S100A12 protein (nS100A12) (natural protein, UniProt P80511 1-92, looked up)
chain: MTKLEEHLEGIVNIFHQYSVRKGHFDTLSKGELKQLLTKELANTIKNIKDKAVIDEIFQGLDANQDEQVDFQEFISLVAIALKAAHYHTHKE
notes: S100A12, human, untagged; Called 'native' in the methods and 'untagged recombinant' in the results; also called human, untagged recombinant nS100A12
- Kd: 1.04 nM and 0.9 nM

— PMC5241339, “Insights into binding of S100 proteins to scavenger receptors: class B scavenger receptor CD36 binds S100A12 with high affinity” (Amino Acids, 2016)
